# Biological target: recombinant CD22 extracellular domain
# Assay: The sheet does not state the method. The column 'KD (nM)' stands beside the confocal data. The values largely repeat FIGURE 18 (SPR on recombinant CD22 extracellular domain), so the target form is taken from there.
# Sequence of recombinant CD22 extracellular domain (chain, as listed by the source limits assumed): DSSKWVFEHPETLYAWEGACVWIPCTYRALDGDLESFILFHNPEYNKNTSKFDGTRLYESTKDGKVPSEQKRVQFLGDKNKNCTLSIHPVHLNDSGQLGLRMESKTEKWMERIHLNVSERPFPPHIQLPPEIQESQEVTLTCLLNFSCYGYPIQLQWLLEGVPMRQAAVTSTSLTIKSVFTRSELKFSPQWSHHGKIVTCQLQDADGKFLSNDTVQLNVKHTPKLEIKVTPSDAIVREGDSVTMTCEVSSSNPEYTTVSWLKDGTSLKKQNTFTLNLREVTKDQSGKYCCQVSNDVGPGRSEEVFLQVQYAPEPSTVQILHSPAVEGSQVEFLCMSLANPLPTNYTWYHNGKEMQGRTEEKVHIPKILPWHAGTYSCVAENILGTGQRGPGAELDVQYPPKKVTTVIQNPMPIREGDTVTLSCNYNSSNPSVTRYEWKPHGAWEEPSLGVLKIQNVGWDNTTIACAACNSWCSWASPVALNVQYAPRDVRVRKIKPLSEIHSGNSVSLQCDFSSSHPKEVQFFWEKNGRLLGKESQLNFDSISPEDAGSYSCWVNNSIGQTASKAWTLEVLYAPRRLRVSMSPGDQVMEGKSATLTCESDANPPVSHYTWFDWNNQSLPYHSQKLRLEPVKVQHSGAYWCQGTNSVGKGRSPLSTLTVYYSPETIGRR
substance,measurement,value
LL2 (mouse Mab) (antibody),Kd,20 nM

# — US20150086562A1
